From the supplement of paper PMC12764529
± gives the half width of the 95% confidence interval.

assay: folding stability dG unfold from chymotrypsin proteolysis; higher = more stable
How it was run: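 K50 was inferred by Bayesian fitting of sequencing counts obtained after protease digestion of designed mini-proteins. Unfolding free energy was derived by comparison with a sequence-predicted unfolded-state K50 and a shared folded-state K50, for each protease or both combined. The mini-proteins were under 80 residues, had no cysteine, were carried in a PA-tagged cDNA display construct, and were kept only if AlphaFold2 dimer inter-PAE exceeded 15.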

Sequence	folding stability dG unfold
SELAEEAAKRAREAFAEEHPGWDVLSVEVEVEKDPNNDVVTVTVKLTLRRESPEPREEVLEEEVTLTFPLKS [r1_181_JUSTAS]	3.24 ± 0.043 kcal/mol
SAGGSAGGEDPNFTPPVKVYYLDLEIEVKPNEIEKLKEEFPDLEAEYEKLGDTYKVKLRIPVPVSAGGSAGG [r6_685_TrMRF]	2.03 ± 0.12 kcal/mol
SMTVSATAVPFGDRLVVTVTVTVDPTLFPDRPPGPAVWERVARELARELGIDSVTLAPLPDDTFVALFDDSA [r9_883_TrMRF]	2.46 ± 0.04 kcal/mol
SAGGSAGGSKKKIKITVEKVDEEKGYYYVTIEIYDEETGELVEKKTIVAPSKEEALKALKELLSAGGSAGGS [r12_26_TrROS_Hall]	3.5 ± 0.2 kcal/mol
SAGGSIEEILKAIPDAEKYEIDREKGIAYVTKKNTLYIVTVPRTSLPSPNGVLEPVSPISIKELPLESAGGS [r16_65_JUSTAS]	0.538 ± 0.1 kcal/mol
SAGGSAGGSASAEIVPLTLTFPVKFKKDPNGKTKEKTVEVKIELYVIRDPNGNLYTIAKISLSAGGSAGGSA [r18_284_TrMRF]	4.24 ± 0.089 kcal/mol
SAGGGTEIEYNPETGEIIVKVNPLIPYPFEPGSETIPLPFEGDPEAAEQEIRDLIEEHPDASFDIKPSSAGG [r13_284_TrMRF]	-1.32 ± 0.17 kcal/mol
SAGGSAGGSAGSMKTLVTTETSTVPGTTTTVTTTTTTTYDPTSSETTTTTTPVTNPAPAASAGGSAGGSAGG [r17_309_JUSTAS]	1.05 ± 0.02 kcal/mol
SAGGMTTTVELELEDPVNLGVPVRVEATVTYEKDPNGNPVAKAEITTTYPDGKEEKTTIPVSELKGLGSAGG [r13_787_JUSTAS]	-0.603 ± 0.13 kcal/mol
SAGGSAGGSAGGDGEDGKPKPEPKIKIKIEVESVRNPNGFLIVTYRIPALGIWITIIINSAGGSAGGSAGGS [r10_160_TrROS]	4.91 ± 0.24 kcal/mol
SAPPNVWVSRTDPATGAVHAEDIPFPDGATAETVPDPATGTVAQSSDGPPAVLEEVRAALPPDASIEPASAG [r14_252_JUSTAS]	-0.245 ± 0.42 kcal/mol
SAGGPVTFEAPLEELLKALPPELVRHASVEPLGEGERRFIATVELEDRRIEAYSDPERPGRVLVTLHFSAGG [r13_942_TrMRF]	0.688 ± 0.12 kcal/mol
SAGGSAGGSAGGAPTIRVELRHPNGERIELEFPADADVIFVPEDYEITRIEIVPADDPASAGGSAGGSAGGS [r10_571_TrMRF]	1.837 ± 0.018 kcal/mol
SAGGSMKVFVFEVKVEVEVKLDKDGNLTVEIKKVEVKPVKKIPLSEEELEKLREAKKKGLTLEEILSAGGSA [r2_327_TrROS_Hall]	3.26 ± 0.1 kcal/mol
SAGGMMKIRIEVENPKGEKKEIELSEEELERIKEALKEGKVLTEEELKKLIELAKEKGYKVKIVEIESAGGS [r8_159_TrROS_Hall]	2.37 ± 0.074 kcal/mol
SAGLFITVEANPNNGTMRITLYRMEPRKDGDGPKMDIEPIAEIEVPMESPEEARDKAKDKAKNLLDKFNSAG [r5_956_TrROS]	1.85 ± 0.14 kcal/mol

Sequence	folding stability dG unfold
SAGGEEKEKLREAIRAALDEAIKEGKKIKKIVIVASPEKKEEIAKLLEEEGLLENLEIEVVSPEELKSAGGS [r16_164_TrROS_Hall]	0.665 ± 0.14 kcal/mol
SAGGSAGGSAGGKPYVIVPVTVRFTIDIPKDHPLLKELDINPEDVKIEFEFSFLGEVPASAGGSAGGSAGGS [r10_82_TrMRF]	2.97 ± 0.089 kcal/mol
SAGGSAGGMEEVLALLKELGLEVKSVDIKSPDKVIVYIKPKDEKKLEELKKAVPKSLVDEIGLESAGGSAGG [r6_84_JUSTAS]	0.455 ± 0.15 kcal/mol
SLPNRPLVPFELELRLPRFEVRVRLYRLPDGSYLLVAEIRFPNGLTARAEFVLDPVTGRIYLVRVEVRPESA [r9_795_TrMRF]	4.56 ± 0.05 kcal/mol
SAGSSVSVSYDPNNPDKMTITITDPANGTQVSAVTAPVYKRPDGTIVVPLTITFPASGKVTTKTFTIPASAG [r5_610_JUSTAS]	1.13 ± 0.09 kcal/mol
SAGGSAPIKIKTADGKTITVNAKDLSLELLKKADKVIITKPDGKKIELPAGAKIKKGDTVTIKIVKSAGGSA [r15_733_TrROS_Hall]	-0.437 ± 0.21 kcal/mol
SAGGGMSGKAISEEEIEALIKEEAEKRGLKIEIKEITRPPGTVTVTVKITEGDSVTEKTIDFPILPEPSAGG [r13_652_JUSTAS]	1.64 ± 0.054 kcal/mol
SALLENGGIFISINLEWDPEYNWIRIKRFTIYWNGKVIATQPQWIPVPPPPPPPPPEREYNPNDPDNNKSAG [r14_571_TrROS]	5.06 ± 0.085 kcal/mol
SAGTEEELVERAKELARELAEELGVEAEAEVTVDPLPDVLVVNLTVRLRLPGGETVELPLTLTFPREFLSAG [r5_609_TrMRF]	3.3 ± 0.035 kcal/mol
SAGGSAGGSAGGDNLMIMIEIEPVKTETRMDPDGKMETRTEYRIKIEIIPPPNPDDPENNSAGGSAGGSAGG [r7_523_TrROS]	2.63 ± 0.049 kcal/mol
SAGAMKITMPEDISVSPSGGATVTITVEFPDKDAVYTVPVTFPDVKSVEEVLARAEEVGKEFAEELKKKSAG [r5_940_JUSTAS]	0.872 ± 0.063 kcal/mol
SAGGSAGGSAGKKKLVVVVDPEEPGRVRIYRDGKVIEMSLEELKKLGIDEVVSVEELLAKSAGGSAGGSAGG [r17_88_TrROS_Hall]	2.34 ± 0.026 kcal/mol
SAGDPRLRVLVVDLEVEGLEELREFVEEHPDVEVLPRPDGRVLLRRVLLVEVEEPEGEEDPDGPTLHPDSAG [r5_129_TrMRF]	1.44 ± 0.18 kcal/mol
SAGGSAPGVTLVSSTSSTSTLPDGTTKSTTTTTYKSPTGTYTTTTTTTVDTSKGTTTPTTTVTPVSSAGGSA [r2_185_JUSTAS]	0.61 ± 0.16 kcal/mol
SAGGMTLLKVRIYIPSEPKPIEVELFTDGDPEKAEEAVRELVEELGYPDAKVEVELLEVDPSDPRFLGSAGG [r13_682_TrMRF]	3.984 ± 0.024 kcal/mol
